Assay results: US20260201064A1 (ISU ABXIS, published 2026)
Changes are numbered by the printed parent chain.

T1: recombinant human ASM protein (human, UniProt P17405 47-630)
T1 construct: Recombinant human ASM in solution; also called acid sphingomyelinase (ASM) protein
T1 sequence: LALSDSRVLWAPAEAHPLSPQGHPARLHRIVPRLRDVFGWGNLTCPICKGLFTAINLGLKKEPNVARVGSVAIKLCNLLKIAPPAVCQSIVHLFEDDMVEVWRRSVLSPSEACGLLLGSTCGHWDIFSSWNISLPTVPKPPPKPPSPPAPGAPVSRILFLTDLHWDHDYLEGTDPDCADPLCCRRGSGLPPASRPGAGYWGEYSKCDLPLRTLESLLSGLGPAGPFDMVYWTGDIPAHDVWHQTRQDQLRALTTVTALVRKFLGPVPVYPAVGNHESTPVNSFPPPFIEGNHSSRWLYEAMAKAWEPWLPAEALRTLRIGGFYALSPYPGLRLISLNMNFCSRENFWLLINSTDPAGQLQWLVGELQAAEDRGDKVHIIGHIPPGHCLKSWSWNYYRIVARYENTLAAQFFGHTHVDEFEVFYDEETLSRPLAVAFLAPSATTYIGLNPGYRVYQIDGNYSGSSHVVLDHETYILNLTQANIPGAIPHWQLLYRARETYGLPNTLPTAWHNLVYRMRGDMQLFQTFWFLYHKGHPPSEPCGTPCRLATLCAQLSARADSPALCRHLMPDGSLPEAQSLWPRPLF

B1: #9104v-L19 (antibody, human IgG4 S228P, lambda, V domains shown)
VH: EVQLLESGGGLVQPGGSLRLSCAASGFTFSNYYMSWVRQAPGKGLEWVSGIYYGSGNIYYADSVKGRFTISRDNSKNTLYLQMNSLRAEDTAVYYCARDTPGFDYWGQGTLVTVSS
VL: QSVLTQPPSASGTPGQRVTISCTGSSSNIGNNAVNWYQQLPGTAPKLLIYYDLFRPSGVPDRFSGSKSGTSASLAISGLRSEDEADYYCGAWDYSLSAYVFGGGTKLTVLG
notes: Full-length IgG, lambda
B2: #9104v-L29 (antibody, human IgG4 S228P, lambda, V domains shown)
VH: B1 VH
VL: B1 VL with L53S, P56S, S57T
notes: Full-length IgG, lambda
B3: #9104v-L25 (antibody, human IgG4 S228P, lambda, V domains shown)
VH: B1 VH
VL: B1 VL with L53S, R55P, P56A
notes: Full-length IgG, lambda
B4: #9104v-L38 (antibody, human IgG4 S228P, lambda, V domains shown)
VH: B1 VH
VL: B1 VL with L53S, F54Y, S57F
notes: Full-length IgG, lambda
B5: #9104v-L39 (antibody, human IgG4 S228P, lambda, V domains shown)
VH: B1 VH
VL: B1 VL with L53S, F54Y, S57G
notes: Full-length IgG, lambda
B6: #9104v-L21 (antibody, human IgG4 S228P, lambda, V domains shown)
VH: B1 VH
VL: B1 VL with L53M, S57N
notes: Full-length IgG, lambda
B7: #9104v-L34 (antibody, human IgG4 S228P, lambda, V domains shown)
VH: B1 VH
VL: B1 VL with L53S, F54Y, R55Q, P56A
notes: Full-length IgG, lambda
B8: #9104v-L20 (antibody, human IgG4 S228P, lambda, V domains shown)
VH: B1 VH
VL: B1 VL with L53M, S57G
notes: Full-length IgG, lambda
B9: #9104v-L27 (antibody, human IgG4 S228P, lambda, V domains shown)
VH: B1 VH
VL: B1 VL with L53S, P56Q
notes: Full-length IgG, lambda
B10: #9104v-L28 (antibody, human IgG4 S228P, lambda, V domains shown)
VH: B1 VH
VL: B1 VL with L53S, P56R
notes: Full-length IgG, lambda
B11: #9104v-L23 (antibody, human IgG4 S228P, lambda, V domains shown)
VH: B1 VH
VL: B1 VL with L53Q
notes: Full-length IgG, lambda
B12: #9104v-L37 (antibody, human IgG4 S228P, lambda, V domains shown)
VH: B1 VH
VL: B1 VL with L53S, F54Y, P56A
notes: Full-length IgG, lambda
B13: #9104v-L46 (antibody, human IgG4 S228P, lambda, V domains shown)
VH: B1 VH
VL: B1 VL with L53S, F54Y, P56S, S57W
notes: Full-length IgG, lambda
B14: #9104v-L33 (antibody, human IgG4 S228P, lambda, V domains shown)
VH: B1 VH
VL: B1 VL with L53S, F54Y, R55P, S57Y
notes: Full-length IgG, lambda
B15: #9104v-L32 (antibody, human IgG4 S228P, lambda, V domains shown)
VH: B1 VH
VL: B1 VL with L53S, F54Y, R55L
notes: Full-length IgG, lambda

What follows are binders tested against T1, recombinant human ASM protein (assay: BLI (Octet), antibody on AHC sensor).
Method: The binding affinity, to the ASM protein, of the produced antibodies specifically binding to the ASM protein and the interactive dynamics therebetween were measured using an Octet® QK384 system (Pall Life Sciences).
First, an antibody specifically binding to the ASM protein produced in Example 1 was captured using an anti-human IgG Fc capture (AHC) biosensor, and 1.25, 2.5, 5, 10, or 20 nM recombinant human ASM protein solution was added thereto. […] The association constant (Kₐ), dissociation constant (Kd), and equilibrium dissociation constant (KD) for each antibody were determined using Octet® analysis software (Pall Life® Sciences). As a result, the binding affinities, to the human ASM protein, of the antibodies with mutations in the heavy chain CDR regions of the antibody #9104 as depicted in Table 1 are shown in Table 5, and the binding affinities, to the human ASM protein, of the antibodies with mutations of the light chain CDR regions in the antibody #9104 as depicted in Table 2 are shown in Table 6.

| Binder | Kd | koff | kon |
| --- | --- | --- | --- |
| B1 | 1.03 nM | 0.000238 s⁻¹ | 231000 M⁻¹ s⁻¹ |
| B2 | 1.07 nM | 0.000292 s⁻¹ | 272000 M⁻¹ s⁻¹ |
| B3 | 0.882 nM | 0.000259 s⁻¹ | 294000 M⁻¹ s⁻¹ |
| B4 | 1.8 nM | 0.000343 s⁻¹ | 191000 M⁻¹ s⁻¹ |
| B5 | 1.52 nM | 0.000443 s⁻¹ | 291000 M⁻¹ s⁻¹ |
| B6 | 0.556 nM | 0.000135 s⁻¹ | 243000 M⁻¹ s⁻¹ |
| B7 | 1.61 nM | 0.000493 s⁻¹ | 306000 M⁻¹ s⁻¹ |
| B8 | 0.658 nM | 0.000162 s⁻¹ | 247000 M⁻¹ s⁻¹ |
| B9 | 1.02 nM | 0.000355 s⁻¹ | 348000 M⁻¹ s⁻¹ |
| B10 | 1.05 nM | 0.000254 s⁻¹ | 241000 M⁻¹ s⁻¹ |
| B11 | 0.817 nM | 0.000185 s⁻¹ | 226000 M⁻¹ s⁻¹ |
| B12 | 1.27 nM | 0.000327 s⁻¹ | 259000 M⁻¹ s⁻¹ |
| B13 | 0.88 nM | 0.000258 s⁻¹ | 293000 M⁻¹ s⁻¹ |
| B14 | 1.27 nM | 0.000289 s⁻¹ | 227000 M⁻¹ s⁻¹ |
| B15 | 1.37 nM | 0.000439 s⁻¹ | 321000 M⁻¹ s⁻¹ |
